Test results reported in patent US8063014B2, “Self-assembly of peptide-amphiphile nanofibers under physiological conditions” (Northwestern University, priority 2002, dated 2011).
Non-standard residues stand in square brackets, D forms with d. No end group written: not given here. *: point of attachment. C16 alkyl = N-terminal C16 alkyl tail, CCCCCCCCCCCCCCCC*; pS = N[C@@H](COP(=O)(O)O)C(=O)O

Assays:
[1] = Solubility, pH-dependent precipitation and gelation in water; type: physicochemical
Description: After synthesis (see, example 10), the PA of FIG. 1 (characterized by ^1H NMR and matrix-assisted laser desorption/ionization time-of-flight mass spectrometry (MALDI-TOF MS): matrix ion [M−H]^−1=1333) was treated with dithiothreitol (DTT) at a pH of 8 to reduce all cysteine residues to free thiols. […] However, upon acidification of the solution below pH 4 the material rapidly becomes insoluble. Solutions more concentrated than 2.5 mg/ml form birefringent gels in water that are self-supporting upon inversion of the container. […] Negatives were digitized in the Umax PowerLook scanner with resolution 1200 dpi. The average thickness of the PA fibers was determined by two different procedures. First the Fourier transform of the images and following measurements of the distances between the peaks were performed in the NIH Image […] program. The second approach applied was averaging technique based on the cross-correlation method, widely used in single particle reconstruction using the EMAN […] program. For each data set 1200-1300 individual boxes were selected.
Several PAs with basic amino acids that can self-assemble at alkaline pH and also mixed systems, in which oppositely charged PAs self-assemble at neutral pH, were prepared. For this purpose PA compounds 22-25 were prepared by standard solid phase peptide synthesis followed by alkylation with the C16 fatty acid, palmitic acid. See Table 2, FIG. 10b (PA 22) and FIGS. 10c-e (PAs 23-25). The peptides thus prepared were characterized by electrospray mass spectroscopy and found to correspond to their respective expected masses.
Solutions of each compound of example 6 were prepared at a concentration of 0.1 mg/m1 at neutral pH.

[2] = Gelation on addition of metal salts (vial inversion); type: physicochemical
Description: 100 μl of 10 mg/ml solution of peptide-amphiphile 20 was treated with 1M CaCl2 (adjusted to pH 6) drop wise in 1 μl increments. The solutions were shaken after each addition of the CaCl2 solution in order to obtain better diffusion of the divalent metal ions. Gelation was immediate. […] This calcium induced self-assembly may be particularly useful for medical applications where formation of a gel at physiological pH is desired. Trivalent metal cations can also be used for gelation.
To determine the relative number of metal ions necessary for gelation of the PAs, titration experiments were performed with PA molecules 26 and 27. […] (See Table 3, below). […] None of the negatively charged peptide-amphiphiles except molecule 32 formed gels in the presence of KCl at a ratio 1 molecule of PA per 20 molecules of KCl.
The synthesis of the peptide amphiphiles illustrates in examples 19-22 was performed using a standard synthesis scheme described elsewhere, herein, and as further available in the literature. Regarding gelation and with reference to the data of Table 3, […] volumes of PA solutions at concentrations 10 mg/ml (approximately 8 mM), pH 7.5 were mixed with 1 M solutions of NaCl, KCl, MgCl2, CaCl2, BaCl2, ZnBr2, […], Gd^+3 and Cu(ClO4)2. The amount of polyvalent ions added to the solutions varied from 0.5 to 5 metal ions per molecule of PA. For monovalent metal ions the maximum concentration of 6 M of metal ions per 10 mM of PA molecules has been tested. The solutions of the metal salts were added to the PA solutions by micropeppetors, the solutions were stirred briefly, in order to obtain better mixing of the components. The formation of self-supporting gels was examined by flipping of the vials up side down. In order to test the ability of cell compatible solutions to induce a gelation of PAs equal amounts 10 mM PA solutions were mixed with following formulations: MEM-α, DMEM containing 10% of fetal bovine serum, PBS without Ca^+2 and Mg^+2 and Hank's solution without Ca^+2 and Mg^+2 (Gibco). The ability of the above solutions to induce formation of the PAs was examined visually by flipping the vials up side down.

[3] = KCl 200 mM, PA 10 mg/ml (roughly 8 mM), pH 7.5
[4] = salt 20 mM, PA 10 mg/ml (roughly 8 mM)

| Substance | gelation properties, KCl [2, 3] | gelation properties, BaCl2 [2, 4] | gelation properties, CaCl2 [2, 4] | gelation properties, GdCl3 [2, 4] | gelation properties, ZnBr2 [2, 4] | further results |
| --- | --- | --- | --- | --- | --- | --- |
| 22 ({C16 alkyl}-CCCCGGGKIKVAV-NH2; cysteine pairing not given here) [compound 22] | – | – | – | – | – | appearance of the solution ([1]; 5 mg/ml in water at pH 7): slightly cloudy; appearance of the solution ([1]; 10 mg/ml, neutral pH): cloudy and viscous |
| 25 ({C16 alkyl}-AAAAGGGEIKVAV-OH; SMILES CCCCCCCCCCCCCCCCN[C@@H](C)C(=O)N[C@@H](C)C(=O)N[C@@H](C)C(=O)N[C@@H](C)C(=O)NCC(=O)NCC(=O)NCC(=O)N[C@@H](CCC(=O)O)C(=O)N[C@H](C(=O)N[C@@H](CCCCN)C(=O)N[C@H](C(=O)N[C@@H](C)C(=O)N[C@H](C(=O)O)C(C)C)C(C)C)[C@@H](C)CC) [compound 25] | – | – | – | – | – | pH below which the PA precipitates on slow acidification (HCl) ([1]; 0.1 mg/ml solution): < 4.5 pH; state at neutral pH ([1]; 0.1 mg/ml solution): completely dissolved; state on increasing the solution's pH (KOH) ([1]; 0.1 mg/ml solution): completely dissolved |
| 21 ({C16 alkyl}-CCCCGGGEIKVAV-OH; cysteine pairing not given here) [compound 21] | – | – | – | – | – | appearance of the solution ([1]; 5 mg/ml in water at pH 7): slightly cloudy |
| 29 (CCCCGGGSRGD-OH; not fully specified (N-terminus); cysteine pairing not given here) [compound 29] | Liquid | gel | gel | gel | gel | – |
| 26 (CCCCGGG[pS]RGD-OH; not fully specified (N-terminus); cysteine pairing not given here) [compound 26] | – | gel | gel | gel | gel | gelation in the presence of KCl or NaCl ([2]; 10 mM PA solution, salt concentrations up to 6M): did not gel; gelation properties, KCl ([2]; KCl concentration up to 6M (molecules 26 and 27), PA 10 mg/ml (roughly 8 mM)): Liquid; minimal amount of CA+2 and Gd+3 ions needed for the gelation ([2]; titration): about equal to the number of PA molecules in solution |
| 24 ({C16 alkyl}-AAAAGGGKYIGSR-NH2; SMILES CCCCCCCCCCCCCCCCN[C@@H](C)C(=O)N[C@@H](C)C(=O)N[C@@H](C)C(=O)N[C@@H](C)C(=O)NCC(=O)NCC(=O)NCC(=O)N[C@@H](CCCCN)C(=O)N[C@@H](Cc1ccc(O)cc1)C(=O)N[C@H](C(=O)NCC(=O)N[C@@H](CO)C(=O)N[C@@H](CCCNC(=N)N)C(N)=O)[C@@H](C)CC) [compound 24] | – | – | – | – | – | pH above which a precipitate forms on slow addition of base ([1]; 0.1 mg/ml solution): above 9.5 pH; state at neutral pH ([1]; 0.1 mg/ml solution): completely dissolved; appearance of the solution ([1]; 10 mg/ml, neutral pH): cloudy and viscous |
| 30 ({C16 alkyl}-AAAGGEQS-OH; SMILES CCCCCCCCCCCCCCCCN[C@@H](C)C(=O)N[C@@H](C)C(=O)N[C@@H](C)C(=O)NCC(=O)NCC(=O)N[C@@H](CCC(=O)O)C(=O)N[C@@H](CCC(N)=O)C(=O)N[C@@H](CO)C(=O)O) [compound 30] | Liquid | gel | gel | gel | gel | gelation properties, Cu(ClO4)2 [2, 4]: gel; gelation properties, MgCl2 [2, 4]: gel |
| 20 ({C16 alkyl}-CCCCGGGSRGD-OH; cysteine pairing not given here) [compound 20] | – | – | – | – | – | gelation on dropwise addition of CaCl2 ([2]; 100 μl of 10 mg/ml PA, 1M CaCl2 (pH 6) in 1 μl increments): immediate |
| 32 (CCCCGGGEIKVAV-OH; not fully specified (N-terminus); cysteine pairing not given here) [compound 32] | gel | – | gel | gel | gel | result of addition of 200 mM of KCl ([2]; 10 mM PA solution): formation of a self-supporting gel; gel formation in the presence of KCl ([2]; ratio 1 molecule of PA per 20 molecules of KCl): formed gels; gelation properties, MgCl2 [2, 4]: gel |
| 31 ({C16 alkyl}-AAAAGGGERGDS-OH; SMILES CCCCCCCCCCCCCCCCN[C@@H](C)C(=O)N[C@@H](C)C(=O)N[C@@H](C)C(=O)N[C@@H](C)C(=O)NCC(=O)NCC(=O)NCC(=O)N[C@@H](CCC(=O)O)C(=O)N[C@@H](CCCNC(=N)N)C(=O)NCC(=O)N[C@@H](CC(=O)O)C(=O)N[C@@H](CO)C(=O)O) [compound 31] | liquid | – | – | gel | gel | – |
